Experiments:
PARP2 = PARP2 (mouse (murine), UniProt O88554 1-559); experiment: photoaffinity crosslinking; 100 nM protein, 100 nM DNA, EDTA; UV photo-crosslinking, 100 nM 5'-32P photoreactive DNA, EDTA present, Pol beta carried over from probe synthesis, SDS-PAGE; binding buffer, pH and temperature not given in the material; details: protein: recombinant; label: 5'-32P on strand 1; nicked duplex of 3 strands (upstream, downstream, template), blunt outer ends, 5'-dRP at nick
PARP1 = PARP1 (human, UniProt P09874 1-1014); experiment: as above; details: protein: recombinant; label: 5'-32P on strand 1; nicked duplex of 3 strands (upstream, downstream, template), blunt outer ends, 5'-dRP at nick
Sequence of PARP1 (P09874 whole entry): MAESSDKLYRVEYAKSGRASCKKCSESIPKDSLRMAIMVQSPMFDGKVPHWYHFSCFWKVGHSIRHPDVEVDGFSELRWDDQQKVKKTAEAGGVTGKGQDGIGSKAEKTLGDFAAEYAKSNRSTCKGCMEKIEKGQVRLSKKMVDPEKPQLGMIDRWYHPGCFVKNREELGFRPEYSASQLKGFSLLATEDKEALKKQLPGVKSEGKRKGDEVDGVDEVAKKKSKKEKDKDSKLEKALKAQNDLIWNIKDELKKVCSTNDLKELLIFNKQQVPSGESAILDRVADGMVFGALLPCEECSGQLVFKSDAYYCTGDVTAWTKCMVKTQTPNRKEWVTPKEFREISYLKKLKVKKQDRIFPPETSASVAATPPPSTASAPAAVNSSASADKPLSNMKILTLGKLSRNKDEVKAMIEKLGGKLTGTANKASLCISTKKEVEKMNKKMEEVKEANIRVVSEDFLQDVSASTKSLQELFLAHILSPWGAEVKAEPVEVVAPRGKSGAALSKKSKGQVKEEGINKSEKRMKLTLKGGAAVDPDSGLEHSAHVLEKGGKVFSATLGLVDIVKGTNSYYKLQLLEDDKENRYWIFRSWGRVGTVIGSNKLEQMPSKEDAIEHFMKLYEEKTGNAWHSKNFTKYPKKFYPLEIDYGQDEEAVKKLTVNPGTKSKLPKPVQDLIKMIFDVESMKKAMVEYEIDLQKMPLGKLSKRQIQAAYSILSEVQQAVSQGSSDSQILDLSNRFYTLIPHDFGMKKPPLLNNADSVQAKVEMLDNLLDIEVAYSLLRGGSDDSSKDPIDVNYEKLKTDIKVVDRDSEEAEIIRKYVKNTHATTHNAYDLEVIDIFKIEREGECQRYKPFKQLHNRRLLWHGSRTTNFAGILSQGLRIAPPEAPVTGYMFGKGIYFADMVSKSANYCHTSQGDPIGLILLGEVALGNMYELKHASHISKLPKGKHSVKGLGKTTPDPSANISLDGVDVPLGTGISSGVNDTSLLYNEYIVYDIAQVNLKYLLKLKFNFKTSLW

HMGB1 = HMGB1 (calf (thymus), UniProt P10103 2-215); experiment: photoaffinity crosslinking; 300 nM protein, 100 nM DNA, EDTA; more efficient than other DNAs; UV photo-crosslinking, 100 nM 5'-32P photoreactive DNA, EDTA present, Pol beta carried over from probe synthesis, SDS-PAGE; binding buffer, pH and temperature not given in the material; details: protein: native; label: 5'-32P on strand 1; nicked duplex of 3 strands, blunt outer ends, 6-nt 5' single-stranded flap (GATAAC) at nick
Sequence of HMGB1 (P10103 2-215): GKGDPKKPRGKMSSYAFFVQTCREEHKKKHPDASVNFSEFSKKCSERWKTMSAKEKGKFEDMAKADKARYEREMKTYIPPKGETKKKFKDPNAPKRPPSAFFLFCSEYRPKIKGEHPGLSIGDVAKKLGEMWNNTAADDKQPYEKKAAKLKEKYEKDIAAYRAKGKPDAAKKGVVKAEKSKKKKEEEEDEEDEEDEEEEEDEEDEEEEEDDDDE

Sequence of PARP2 (O88554 whole entry): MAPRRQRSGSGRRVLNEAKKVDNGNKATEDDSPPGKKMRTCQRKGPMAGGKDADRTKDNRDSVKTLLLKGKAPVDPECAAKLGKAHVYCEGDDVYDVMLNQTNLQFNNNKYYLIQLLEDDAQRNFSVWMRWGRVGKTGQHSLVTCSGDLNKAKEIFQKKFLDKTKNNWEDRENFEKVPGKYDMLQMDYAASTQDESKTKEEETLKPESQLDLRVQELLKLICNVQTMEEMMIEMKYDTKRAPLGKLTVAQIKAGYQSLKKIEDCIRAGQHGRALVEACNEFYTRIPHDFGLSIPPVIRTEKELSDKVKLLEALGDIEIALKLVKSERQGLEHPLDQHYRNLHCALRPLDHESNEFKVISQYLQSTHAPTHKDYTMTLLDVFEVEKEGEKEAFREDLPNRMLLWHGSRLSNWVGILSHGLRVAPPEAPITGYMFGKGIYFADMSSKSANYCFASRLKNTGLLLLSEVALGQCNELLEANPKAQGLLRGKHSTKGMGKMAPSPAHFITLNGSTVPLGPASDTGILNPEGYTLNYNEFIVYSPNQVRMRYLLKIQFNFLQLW

B1: Pho-dRP (dsDNA)
DNA 1: GGCGACTAAGCCGGGC
DNA 2: AACGCCAGGGCCTCCC
DNA 3: GGGAGGCCCTGGCGTTGCCCGGCTTAGTCGCC
modifications: strand 1 3'-terminal C is FAP-dCMP (photoreactive exo-N-substituted dC); strand 2 carries 5'-dRP (phosphate-linked, from Ung-treated 5'-pU)
binding result (PARP2): binds
binding result (PARP1): binds

B2: Pho-Flap (dsDNA)
DNA 1: GGCGACTAAGCCGGGC
DNA 2: GATAACAACGCCAGGGCCTCCC
DNA 3: B1 DNA 3
modifications: strand 1 3'-terminal C is FAP-dCMP
binding result (HMGB1): binds
